Molecular target: T1, bovine serum albumin (bovine, UniProt P02769 25-607)
T1 construct: also called BSA
Assay: SELDI-TOF ProteinChip, protein covalently bound to PS-1 chip, SP added
Procedure: HGFIN-SP interaction was studied by pre-treating the PS1 chips with 50% acetonitrile for 3 min. After this, the chips were incubated for 45 min with the following: 2.5 μg HGFIN (experimental sample), anti-Id2, an unrelated IgG regarding its ability to complex with SP and was therefore treated as a negative control, rabbit anti-SP (positive control) or 20 ng fibronectin, fragment III-C (positive control). The arrays were blocked for 25 min with 1M ethanolamine and washed with PBS+0.5% Triton X (2×) and a final PBS wash step. After this the chips were washed with PBS+Triton-x, PBS, rinsed with 5 mM Hepes and then dried. CHCA was applied and the non-covalently bound SP was detected with the SELDI-Time of Flight Mass spectrometer as described for the profiling studies for HGFIN.
Fibronectin has been reported to bind SP. Therefore, this property of fibronectin was used as a positive control for SP interaction on the SELDI system. […] Similar results were shown with another positive control: rabbit anti-SP (covalently bound) and SP (FIG. 4C, lower chromatogram). No peak was detected in two negative controls, which consisted of bovine serum albumin or an unrelated antibody (anti-Id2) covalently bound to the surface of PS-1.

T1 sequence (P02769 25-607 limits assumed): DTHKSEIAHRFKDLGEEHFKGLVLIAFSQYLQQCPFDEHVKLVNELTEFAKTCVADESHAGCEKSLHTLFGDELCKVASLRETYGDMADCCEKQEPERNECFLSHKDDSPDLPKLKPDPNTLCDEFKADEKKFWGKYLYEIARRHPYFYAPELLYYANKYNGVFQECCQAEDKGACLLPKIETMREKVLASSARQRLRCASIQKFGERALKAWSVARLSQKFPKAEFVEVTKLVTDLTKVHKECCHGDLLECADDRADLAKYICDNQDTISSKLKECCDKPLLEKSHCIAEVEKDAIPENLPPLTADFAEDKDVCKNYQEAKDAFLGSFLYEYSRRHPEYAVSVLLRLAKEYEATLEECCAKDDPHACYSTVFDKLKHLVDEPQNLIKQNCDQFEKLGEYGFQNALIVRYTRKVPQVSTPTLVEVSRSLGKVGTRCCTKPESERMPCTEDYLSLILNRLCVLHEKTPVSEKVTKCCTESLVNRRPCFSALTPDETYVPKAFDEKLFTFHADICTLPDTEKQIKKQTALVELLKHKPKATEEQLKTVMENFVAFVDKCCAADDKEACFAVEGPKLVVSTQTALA

binding result: no binding
B1: Substance P (peptide, UniProt P20366 58-68, looked up)
peptide: RPKPQQFFGLM
notes: Substance P is an 11-residue peptide cut from it; 2 ug was added to the chips; also called SP

Source: US20030202938A1 (UNIVERSITY OF MEDICINE AND DENTISTRY OF NEW JERSEY, published 2003)
